For data set [1], the target named is T1, IDX-1 (GST fusion, full length) (Rattus norvegicus, UniProt P52947 SEQ:1-283). In words: EMSA; data not shown; protein preparation not stated. The following applies: tags: N-terminal GST (pGEX-KG), bacterially expressed. On the technique in general: A gel shift assay detects complexes by their altered migration in electrophoresis.
The target of data set [2] is T1, IDX-1 (GST fusion, full length). In words: EMSA; appears weaker than SMS-TAAT1. The following applies: tags: N-terminal GST (pGEX-KG), bacterially expressed; label: 32P. Here is the method:
(§1) Electrophoretic mobility shift assays (EMSA) were performed as described (Ron et al., 1990, Mol. and Cell. Biol. 10:1023) using bacterially-expressed IDX-1 or nuclear extracts prepared from RIN1027-B2 cells (Dignam et al., 1983, supra). PCR was used to generate a bacterial expression vector encoding the full length IDX-1 protein fused to glutathione S-transferase(GST). An oligonucleotide amplimer was designed to create an NcoI site at the initiation methionine of the IDX-1 cDNA. This primer was used in conjunction with the T3 primer to amplify the IDX-1 cDNA insert from an IDX-1/pBS(KS) subclone. The PCR product was digested with NcoI and XhoI, gel-purified, and ligated into NcoI/XhoI-cut pGEX-KG (Pharmacia Biotech Inc., Piscataway, N.J.). Expression and purification of the GST/IDX-1 fusion protein was performed as described (Smith and Johnson, 1988, supra).
(§2) Nuclear extracts form RIN1027-B2 cells or purified bacterially-expressed GST/IDX-1 were incubated with the following ^32P-labelled double-stranded oligonucleotide probes: 1) INS1-FLAT, the Far-linked AT-rich element of the rat insulin 1 gene (German et al., 1992, Mol. Cell. Biol. 12:1777) (5'-[…]-3'); 2) SMS-TAAT1, a FLAT-like element (5'-[…] […]

Data set [3] shares this target. In words: EMSA; several complexes. The following applies: tags: N-terminal GST (pGEX-KG), bacterially expressed; label: 32P. Here is the method: as §1, §2
Data set [4] shares this target. In words: EMSA. The following applies: tags: N-terminal GST (pGEX-KG), bacterially expressed; label: 32P. Here is the method: as §1, §2
In data set [5] the target is IDX-1 (IDX-1/pBJ5 expressed in NIH-3T3) (Rattus norvegicus, UniProt P52947 SEQ:1-283). Kind of data set: cell_activity; CAT reporter in NIH-3T3. The source says:
Several different reporter constructs were used in cotransfection experiments with IDX-1/pBJ5 expression vector. The SMS900CAT plasmid consists of nucleotides −900 to +54, relative to the transcription start site, of the rat somatostatin gene linked 5' to the coding sequence of the bacterial chloramphenicol acetyl transferase (CAT) gene (Powers et al., 1989, supra). The plasmid SMS900(Δ−250/−120)CAT is identical to SMS900CAT with the exception of an internal deletion between nucleotides −250 and −120. This deletion removes a putative transcriptional suppressor region located between nucleotides −237 and −189 of the rat somatostatin gene (Vallejo et al., in preparation). SMS(−900/−250) TKCAT contains −900 to −250 of the rat somatostatin gene linked 5' to the herpes simplex thymidine kinase promoter in the CAT reporter plasmid PUTKAT (Prost and Moore, 1986, Gene 45:107). The plasmids SMS900CAT(TAAT1mut), SMS900CAT(TAAT2mut) and SMS900CAT(UE-Bmut) were created using oligonucleotide-directed mutagenesis (Kunkel, 1985, Proc. Natl. Acad. Sci. USA 82:488) to introduce clustered nucleotide substitutions in the IDX-1 binding sites located at −450, −290, and —90, respectively, within the SMS900CAT reporter. For SMS-TAAT1, the central 5'-ATTAAT-3' was converted to 5'-GCCGGC-3'. […]

T1 sequence (P52947 other isoform, or with tags, fused parts or gaps): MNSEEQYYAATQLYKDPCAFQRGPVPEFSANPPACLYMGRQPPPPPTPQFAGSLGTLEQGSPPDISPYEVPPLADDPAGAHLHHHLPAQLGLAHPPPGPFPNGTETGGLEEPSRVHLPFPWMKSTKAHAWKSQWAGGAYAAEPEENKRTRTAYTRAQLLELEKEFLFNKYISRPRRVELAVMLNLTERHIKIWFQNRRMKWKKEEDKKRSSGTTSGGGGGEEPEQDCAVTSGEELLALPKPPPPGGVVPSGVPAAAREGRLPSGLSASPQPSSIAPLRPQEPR
Chain of IDX-1 (IDX-1/pBJ5 expressed in NIH-3T3) (P52947 other isoform, or with tags, fused parts or gaps): as above

B1: SMS-UE-B mutant (dsDNA)
DNA 1: GATCCGCGAGGTCGGCAGTGCGTAAAAGCACTGGTGA
DNA 2: TCACCAGTGCTTTTACGCACTGCCGACCTCGCGGATC
modifications: [12-17]
As for B1, in data set [1], the binding result is “no binding”.

B2: SMS-TAAT1 mutant (dsDNA)
DNA 1: GATCCCTGATTGCATGCCGGCTCTCAGATA
DNA 2: TATCTGAGAGCCGGCATGCAATCAGGGATC
modifications: [16-21]
B2: in data set [1], the binding result was “no binding”.

B3: SMS-TAAT2 (dsDNA)
DNA 1: GATCCGATCTCAGTAATTAATCATGCACCA
DNA 2: TGGTGCATGATTAATTACTGAGATCGGATC
On to B3, for which the binding result in data set [2] is given as “binds”.

B4: INS1-FLAT (dsDNA)
DNA 1: GATCCTTGTTAATCTAATTACCCTAGGTCTAA
DNA 2: TTAGACCTAGGGTAATTAGATTAACAAGGATC
With B4, the binding result in data set [3] is on record as “binds”.

B5: SMS-PS (dsDNA)
DNA 1: GATCCAGGCAAGATTATTTGGTCA
DNA 2: TGACCAAATAATCTTGCCTGGATC
Consider B5, for which, in data set [4], the binding result is “no binding”.

B6: SMS-UE-B (dsDNA)
DNA 1: GATCCGCGAGGCTAATGGTGCGTAAAAGCACTGGTGA
DNA 2: TCACCAGTGCTTTTACGCACCATTAGCCTCGCGGATC
For B6, the binding result in data set [4] is “binds”.

B7: 6x SMS-TAAT1 in SMS65CAT (dsDNA)
DNA 1: GATCCCTGATTGCATATTAATTCTCAGATA
DNA 2: TATCTGAGAATTAATATGCAATCAGGGATC
Take B7: the activity in data set [5] worked out at 34 fold.

B8: SMS-TAAT2 mutant (dsDNA)
DNA 1: GATCCGATCTCAGCGGCCGATCATGCACCA
DNA 2: TGGTGCATGATCGGCCGCTGAGATCGGATC
modifications: [14-19]
Regarding B8, the binding result in data set [1] is “no binding”.

Source of the values: patent publication US5858973, “Transcription factor and uses therefor” (The General Hospital Corporation).
